Experimental data reported in patent US11052132B2, “Methods and compositions for treating cystic fibrosis” (PHASEBIO PHARMACEUTICALS, INC., priority 2014, dated 2021).

B1: PB1120: long lasting, stable VIP therapeutic which includes ELP sequences; VIP-ELP fusion, SEQ ID NO: 20 (protein)
chain: HSDAVFTDNYTRLRKQMAVKKYLNSILNVPGVGVPGVGVPGGGVPGAGVPGVGVPGVGVPGVGVPGGGVPGAGVPGGGVPGVGVPGVGVPGGGVPGAGVPGVGVPGVGVPGVGVPGGGVPGAGVPGGGVPGVGVPGVGVPGGGVPGAGVPGVGVPGVGVPGVGVPGGGVPGAGVPGGGVPGVGVPGVGVPGGGVPGAGVPGVGVPGVGVPGVGVPGGGVPGAGVPGGGVPGVGVPGVGVPGGGVPGAGVPGVGVPGVGVPGVGVPGGGVPGAGVPGGGVPGVGVPGVGVPGGGVPGAGVPGVGVPGVGVPGVGVPGGGVPGAGVPGGGVPGVGVPGVGVPGGGVPGAGVPGVGVPGVGVPGVGVPGGGVPGAGVPGGGVPGVGVPGVGVPGGGVPGAGVPGVGVPGVGVPGVGVPGGGVPGAGVPGGGVPGVGVPGVGVPGGGVPGAGVPGVGVPGVGVPGVGVPGGGVPGAGVPGGGVPGVGVPGVGVPGGGVPGAGVPGVGVPGVGVPGVGVPGGGVPGAGVPGGGVPGVGVPGVGVPGGGVPGAGVPGVGVPGVGVPGVGVPGGGVPGAGVPGGGVPGVGVPGVGVPGGGVPGAGVPGVGVPGVGVPGVGVPGGGVPGAGVPGGGVPGWP
modifications: VIP ELP1-120
B2: PB1046: long lasting, stable VIP therapeutic which includes ELP sequences; VIP-ELP fusion, SEQ ID NO: 15 (protein)
chain: MHSDAVFTDNYTRLRKQMAVKKYLNSILNVPGVGVPGVGVPGGGVPGAGVPGVGVPGVGVPGVGVPGGGVPGAGVPGGGVPGVGVPGVGVPGGGVPGAGVPGVGVPGVGVPGVGVPGGGVPGAGVPGGGVPGVGVPGVGVPGGGVPGAGVPGVGVPGVGVPGVGVPGGGVPGAGVPGGGVPGVGVPGVGVPGGGVPGAGVPGVGVPGVGVPGVGVPGGGVPGAGVPGGGVPGVGVPGVGVPGGGVPGAGVPGVGVPGVGVPGVGVPGGGVPGAGVPGGGVPGVGVPGVGVPGGGVPGAGVPGVGVPGVGVPGVGVPGGGVPGAGVPGGGVPGVGVPGVGVPGGGVPGAGVPGVGVPGVGVPGVGVPGGGVPGAGVPGGGVPGVGVPGVGVPGGGVPGAGVPGVGVPGVGVPGVGVPGGGVPGAGVPGGGVPGVGVPGVGVPGGGVPGAGVPGVGVPGVGVPGVGVPGGGVPGAGVPGGGVPGVGVPGVGVPGGGVPGAGVPGVGVPGVGVPGVGVPGGGVPGAGVPGGGVPGVGVPGVGVPGGGVPGAGVPGVGVPGVGVPGVGVPGGGVPGAGVPGGGVPGVGVPGVGVPGGGVPGAGVPGVGVPGVGVPGVGVPGGGVPGAGVPGGGVPGWP
modifications: M-VIP ELP1-120

Legend:
F508del-CFTR [1] = biological target: T1, F508del-CFTR (Homo sapiens, UniProt P13569, DEL508-508); assay: Iodide efflux assay on JME/CF15 cells (rescue of F508del-CFTR function); type: cell-based; conditions: for effect on iodide efflux, alone / plateau concentration (iodide efflux rate) / EC50: JME/CF15 cells at 37° C.; for effect on iodide efflux, alone: acute treatment with 1 μM VX770 alone (FIG. 6A); for effect on iodide efflux in combination with VX-770: 350 nM PB1046 18 hours or 140 nM PB1120 24 hours, plus acute 1 μM VX-770 (FIG. 6B, C); for correct and/or potentiate the activity of F508del-CFTR (iodide efflux) compared with VX-809 and VX-661: 37° C., 900 nM VIP 24 h, 1 μM PB1120 24 h, 1.2 μM PB1046 18 h, versus 1 μM VX809 24 h, 3 μM VX661 24 h (FIG. 5); for plateau concentration (iodide efflux rate) / EC50: pre-incubated 2 hours at 30-3,500 nM, then cAMP activator cocktail, n=3-5; for EC50: read-out: EC50 (iodide efflux rate)
T1 construct: A human nasal epithelial cell line JME/CF15, derived from a Cystic Fibrosis patient homozygous for the F508del mutation; endogenous in cells; host or cells: JME/CF15 human nasal epithelial cell line (CF patient, F508del homozygous)
T1 sequence (P13569 with tags, fused parts or gaps DEL508-508): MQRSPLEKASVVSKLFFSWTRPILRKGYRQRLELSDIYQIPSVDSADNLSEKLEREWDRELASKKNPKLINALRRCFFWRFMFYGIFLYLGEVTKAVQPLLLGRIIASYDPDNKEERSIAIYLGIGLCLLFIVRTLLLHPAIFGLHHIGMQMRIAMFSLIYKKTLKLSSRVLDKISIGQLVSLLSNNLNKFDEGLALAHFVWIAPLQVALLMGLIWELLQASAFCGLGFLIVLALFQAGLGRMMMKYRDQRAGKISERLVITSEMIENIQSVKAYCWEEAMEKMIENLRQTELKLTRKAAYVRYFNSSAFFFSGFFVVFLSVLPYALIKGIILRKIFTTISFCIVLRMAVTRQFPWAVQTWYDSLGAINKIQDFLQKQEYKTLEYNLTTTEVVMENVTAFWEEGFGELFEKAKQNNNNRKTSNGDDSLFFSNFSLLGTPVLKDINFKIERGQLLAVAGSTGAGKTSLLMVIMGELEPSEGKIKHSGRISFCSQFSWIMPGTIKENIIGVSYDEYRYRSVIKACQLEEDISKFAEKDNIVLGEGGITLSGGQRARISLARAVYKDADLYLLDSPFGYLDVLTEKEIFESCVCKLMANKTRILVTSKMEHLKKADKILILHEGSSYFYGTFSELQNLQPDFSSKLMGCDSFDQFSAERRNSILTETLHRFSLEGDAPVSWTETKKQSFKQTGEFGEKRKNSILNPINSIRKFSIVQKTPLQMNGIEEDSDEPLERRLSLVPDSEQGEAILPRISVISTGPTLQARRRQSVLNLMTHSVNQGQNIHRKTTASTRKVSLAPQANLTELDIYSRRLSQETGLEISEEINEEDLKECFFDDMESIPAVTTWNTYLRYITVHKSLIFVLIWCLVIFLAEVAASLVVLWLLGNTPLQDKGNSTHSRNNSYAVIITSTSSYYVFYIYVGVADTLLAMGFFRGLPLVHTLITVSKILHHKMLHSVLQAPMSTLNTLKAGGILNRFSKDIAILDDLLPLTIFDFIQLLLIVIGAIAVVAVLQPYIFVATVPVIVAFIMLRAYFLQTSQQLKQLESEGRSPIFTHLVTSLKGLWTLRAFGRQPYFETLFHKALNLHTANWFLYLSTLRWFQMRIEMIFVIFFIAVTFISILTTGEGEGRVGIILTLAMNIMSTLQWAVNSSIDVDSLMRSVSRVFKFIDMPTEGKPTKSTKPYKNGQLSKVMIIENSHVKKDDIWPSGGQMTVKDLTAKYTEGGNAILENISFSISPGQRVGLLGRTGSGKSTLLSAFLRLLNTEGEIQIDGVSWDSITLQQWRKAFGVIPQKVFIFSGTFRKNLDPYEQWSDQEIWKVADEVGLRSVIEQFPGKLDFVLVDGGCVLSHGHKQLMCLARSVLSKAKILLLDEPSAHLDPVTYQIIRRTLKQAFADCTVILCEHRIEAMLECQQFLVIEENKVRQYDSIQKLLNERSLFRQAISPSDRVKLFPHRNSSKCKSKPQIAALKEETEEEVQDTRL
Method: A human nasal epithelial cell line JME/CF15, derived from a Cystic Fibrosis patient homozygous for the F508del mutation (Jefferson (1990)) was used to evaluate the effect of VIP compounds on CFTR protein function. Cells were cultured at 37° C. with at 5% CO2— 95% humidity in DMEM-F12 with 10% FBS and supplemented with transferrin (5 μg/ml), triiodothyronine (2 nM), insulin (5 μg/ml), hydrocortisone (1.1 μM), EGF (1.64 nM), epinephrine (5.5 μM), and adenine (18 μM). Cells were maintained at 37° C. and incubated with […] VIP, 1.2 μM PB1046 (SEQ ID NO: 15), or 1 μM PB1120 (SEQ ID NO: 20) for 18 or 24 hours before the assaying for iodide efflux. For comparison, cells were incubated with the CFTR correctors VX-809 (lumacaftor) or VX-661.
To evaluate the effect of test compounds on CFTR protein function, the activity of the CFTR chloride channel was determined by studying the efflux of iodide ions using an iodide sensitive electrode. Cells were incubated with NaI loading buffer (136 mM NaI, 3 mM KNO3, 2 mM Ca(NO3), 11 mM glucose, 20 mM HEPES, pH 7.4) for 1 hour at room temperature. Extracellular NaI solution was then removed and replaced with efflux buffer in which NaI was replaced with NaNO3. Samples were taken and replaced at 1 minute intervals. The first 3 samples taken before addition of the CFTR activation cocktail (time 0-2 min) were used to establish a stable baseline of ion efflux. CFTR activation cocktail (150 μM cpt-cAMP+1 mM IBMX+10 μM forskolin) was included in the efflux buffer from time 3 minutes. NaI concentration was then measured using an iodide sensitive electrode moved over each sample by a computerised autosampler and the NaI efflux rate constant k (min^−1) was calculated. Iodide efflux peaks (maximum efflux rate during stimulation—basal level) were compared.
Iodide efflux rates were measured on JME/CF15 cells maintained at 37° C. and pre-incubated with VIP, PB1046, or PB1120 at 30-3,500 nM for 2 hours. […] Rescued F508del-CFTR was stimulated by a cAMP activator cocktail added to the efflux buffer. […] CFTRinh172 (20 μM) was included in the incubation, confirming that the iodide efflux was mediated by CFTR.
To study the effects of administration of PB1120 or PB1046 together with CFTR potentiators or CFTR correctors, iodide efflux assays were performed as described in Example 1.

F508del-CFTR [2] = assay: Immunoblotting / immunostaining of F508del-CFTR maturation and membrane expression in JME/CF15 cells; type: cell-based, human; conditions: JME/CF15 cells at 37° C., incubated with compound for 24 hours (FIG. 4)
Method: JME/CF15 cells were immunostained for CFTR (A).
Immunoblotting was performed to visualize the […] of the F508del-CFTR in the epithelial cells treated with VIP, PB1120, or PB1046.

Molecule	iodide efflux activity rescued by VIP therapeutics when the CFTR inhibitor is included (F508del-CFTR [1]; CFTRinh172 20 μM, 30 minutes before and during the efflux experiments (FIG. 3))	effect on iodide efflux, alone (F508del-CFTR [1])	effect on iodide efflux, alone (F508del-CFTR [1]; listed as VX770)	F508del-CFTR maturation and membrane expression (F508del-CFTR [2])	effect on iodide efflux in combination with VX-770 (F508del-CFTR [1])	effect on iodide efflux in combination with VX-809 (F508del-CFTR [1]; 1 μM PB1120 and 1 μM VX-809 for 24 hours (FIG. 7))	correct and/or potentiate the activity of F508del-CFTR (iodide efflux) compared with VX-809 and VX-661 (F508del-CFTR [1])	plateau concentration (iodide efflux rate) (F508del-CFTR [1]) [nM]	EC50 (F508del-CFTR [1]) [nM]
O=C(O)c1ccc(/C=C2\SC(=S)N(c3cccc(C(F)(F)F)c3)C2=O)cc1 [CFTRinh172, reference compound]	significantly reduced	–	–	–	–	–	–	–	–
CC(C)(C)c1cc(C(C)(C)C)c(NC(=O)c2c[nH]c3ccccc3c2=O)cc1O [VX-770, ivacaftor, reference compound]	–	no effect	did not produce any significant stimulation	–	–	–	–	–	–
B1	–	–	–	corrected	synergistic effect	synergism	equivalent or greater extent than VX-809 and VX-661	1000	140
B2	–	–	–	corrected	synergistic effect	–	equivalent or greater extent than VX-809 and VX-661	1200	355
